The values below come from patent US20260193293A1, “PEPTIDES CAPABLE OF INHIBITING PROTEIN-PROTEIN INTERACTIONS AT GABAB1A SUBUNIT AND USES THEREOF” (UNIVERSITY OF COPENHAGEN, priority 2022, published 2026).

Test [1] has as its target Sushi domains (SD1/2) protein of the GABAB1a (GB1a) subunit, recombinant. The test can be described thus: FP competition.
The target is the same in test [2]. The test can be described thus: FP competition. This is another data set of the same source.
Test [3] deals with Sushi domains (SD1/2) protein of GABAB1a (GB1a). The test can be described thus: FP competition vs TAMRA AJAP-1probe.

Where two headings read alike, the source gives them in different places. Starred links: 1 amine or outer side, 2 acyl side, 3 side chain; linkers in the order of their positions; H or OH if unused. Non-standard residues stand in square brackets, D forms with d. Tyr(Bzl) = Obtyr, O-benzyl-L-tyrosine, O=C([C@H](Cc1ccc(OCc2ccccc2)cc1)N[*:1])[*:2]; Tyr(Et) = Oetyr, O-ethyl-L-tyrosine, CCOc1ccc(C[C@H](N[*:1])C(=O)[*:2])cc1; Tyr(Me) = Omtyr, O-methyl-L-tyrosine, COc1ccc(C[C@H](N[*:1])C(=O)[*:2])cc1; Obtyr = O-benzyl-L-tyrosine, O=C([C@H](Cc1ccc(OCc2ccccc2)cc1)N[*:1])[*:2]; Oetyr = O-ethyl-L-tyrosine, CCOc1ccc(C[C@H](N[*:1])C(=O)[*:2])cc1; Phe(4-NH2) = Nc1ccc(C[C@H](N)C(=O)O)cc1; 1Nal = N[C@@H](Cc1cccc2ccccc12)C(=O)O; 2Nal = N[C@@H](Cc1ccc2ccccc2c1)C(=O)O; Sar = CNCC(=O)O

Chain of Sushi domains (SD1/2) protein of the GABAB1a (GB1a) subunit, recombinant (Q9Z0U4 29-158): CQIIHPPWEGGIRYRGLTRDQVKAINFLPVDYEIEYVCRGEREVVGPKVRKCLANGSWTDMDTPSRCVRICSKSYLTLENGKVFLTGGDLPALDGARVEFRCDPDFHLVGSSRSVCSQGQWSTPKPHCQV
Chain of Sushi domains (SD1/2) protein of GABAB1a (GB1a) (Q9Z0U4 29-158): as above

B1: peptide 20 (Ac-EDDD(2Nala)…-NH2) (peptide)
peptide: EDDDAIDWYDSDDD
modifications: N-terminal acetyl; C-terminal amide; 3-(2-naphthyl)-L-alanine (2Nala) at 5
In general, Ki refers to the equilibrium dissociation constant of an inhibitor or competing ligand from its target. B1: in test [1], the Ki turned out to be 1.5 nM.

B2: peptide 37 (Ac-…-NH2) (peptide)
peptide: Ac-ETEFIAWYGADTD-NH2
Take B2: in test [1], the inhibitory constant (Ki) came out at 95 nM.

B3: hybrid peptide Y (Ac-…-NH2) (peptide)
peptide: Ac-ETEFIAWGGADTD-NH2
On to B3, for which, in test [1], the Ki is 354 nM.

B4: EDDSDVWW(Oetyr)GADTD (peptide)
peptide: Ac-EDDSDVWW[Tyr(Et)]GADTD-NH2
SMILES: CCOc1ccc(C[C@H](NC(=O)[C@H](Cc2c[nH]c3ccccc23)NC(=O)[C@H](Cc2c[nH]c3ccccc23)NC(=O)[C@@H](NC(=O)[C@H](CC(=O)O)NC(=O)[C@H](CO)NC(=O)[C@H](CC(=O)O)NC(=O)[C@H](CC(=O)O)NC(=O)[C@H](CCC(=O)O)NC(C)=O)C(C)C)C(=O)NCC(=O)N[C@@H](C)C(=O)N[C@@H](CC(=O)O)C(=O)N[C@H](C(=O)N[C@@H](CC(=O)O)C(N)=O)[C@@H](C)O)cc1
B4: the Ki in test [2] came out at 100 nM; in test [3], 113 nM.

B5: peptide 28 (Ac-…-NH2) (peptide)
peptide: Ac-EDDSWIWWYGADTD-NH2
With B5, the Ki in test [1] came out at 18 nM.

B6: EDDS(Obtyr)… (peptide)
peptide: Ac-EDDS[Tyr(Bzl)]VWWGGADTD-NH2
SMILES: CC(=O)N[C@@H](CCC(=O)O)C(=O)N[C@@H](CC(=O)O)C(=O)N[C@@H](CC(=O)O)C(=O)N[C@@H](CO)C(=O)N[C@@H](Cc1ccc(OCc2ccccc2)cc1)C(=O)N[C@H](C(=O)N[C@@H](Cc1c[nH]c2ccccc12)C(=O)N[C@@H](Cc1c[nH]c2ccccc12)C(=O)NCC(=O)NCC(=O)N[C@@H](C)C(=O)N[C@@H](CC(=O)O)C(=O)N[C@H](C(=O)N[C@@H](CC(=O)O)C(N)=O)[C@@H](C)O)C(C)C
Regarding B6, in test [2], the Ki amounted to 27.1 nM and the fold increased affinity compared to Asp207Trp is 4 fold. For the same molecule, the Ki in test [3] stood at 28 nM.

B7: peptide 18 (Ac-…-NH2) (peptide)
peptide: Ac-EDDYIDWYDSDDD-NH2
With B7, in test [1], the Ki worked out at 4.6 nM.

B8: EDDS(2Nala)… (peptide)
peptide: Ac-EDDS[2Nal]VWWGGADTD-NH2
SMILES: CC(=O)N[C@@H](CCC(=O)O)C(=O)N[C@@H](CC(=O)O)C(=O)N[C@@H](CC(=O)O)C(=O)N[C@@H](CO)C(=O)N[C@@H](Cc1ccc2ccccc2c1)C(=O)N[C@H](C(=O)N[C@@H](Cc1c[nH]c2ccccc12)C(=O)N[C@@H](Cc1c[nH]c2ccccc12)C(=O)NCC(=O)NCC(=O)N[C@@H](C)C(=O)N[C@@H](CC(=O)O)C(=O)N[C@H](C(=O)N[C@@H](CC(=O)O)C(N)=O)[C@@H](C)O)C(C)C
Regarding B8, the fold increased affinity compared to Asp207Trp in test [2] stood at 2 fold. In addition, in test [3], the Ki worked out at 43 nM.

B9: PWAIVWG(N-Me-G)TVSRED (peptide)
peptide: Ac-PWAIVWG[Sar]TVSRED-NH2
SMILES: CC[C@H](C)[C@H](NC(=O)[C@H](C)NC(=O)[C@H](Cc1c[nH]c2ccccc12)NC(=O)[C@@H]1CCCN1C(C)=O)C(=O)N[C@H](C(=O)N[C@@H](Cc1c[nH]c2ccccc12)C(=O)NCC(=O)N(C)CC(=O)N[C@H](C(=O)N[C@H](C(=O)N[C@@H](CO)C(=O)N[C@@H](CCCNC(=N)N)C(=O)N[C@@H](CCC(=O)O)C(=O)N[C@@H](CC(=O)O)C(N)=O)C(C)C)[C@@H](C)O)C(C)C
Turning to B9, the Ki in test [2] and in test [3] was 525 nM throughout.

B10: EDDSDVWW(1Nala)GADTD (peptide)
peptide: Ac-EDDSDVWW[1Nal]GADTD-NH2
SMILES: CC(=O)N[C@@H](CCC(=O)O)C(=O)N[C@@H](CC(=O)O)C(=O)N[C@@H](CC(=O)O)C(=O)N[C@@H](CO)C(=O)N[C@@H](CC(=O)O)C(=O)N[C@H](C(=O)N[C@@H](Cc1c[nH]c2ccccc12)C(=O)N[C@@H](Cc1c[nH]c2ccccc12)C(=O)N[C@@H](Cc1cccc2ccccc12)C(=O)NCC(=O)N[C@@H](C)C(=O)N[C@@H](CC(=O)O)C(=O)N[C@H](C(=O)N[C@@H](CC(=O)O)C(N)=O)[C@@H](C)O)C(C)C
On to B10, for which the values for the Ki in test [2] and in test [3] were 100 nM and 114 nM, respectively.

B11: peptide 29 (Ac-…-NH2) (peptide)
peptide: Ac-EDDSWIDWGPTGDED-NH2
For B11, the Ki in test [1] is 5.6 nM.

B12: peptide 30 (Ac-…-NH2) (peptide)
peptide: Ac-EDDSWIDWYGADTD-NH2
As to B12, the Ki in test [1] is 11 nM.

B13: EDDSDVWW(2Nala)GADTD (peptide)
peptide: Ac-EDDSDVWW[2Nal]GADTD-NH2
SMILES: CC(=O)N[C@@H](CCC(=O)O)C(=O)N[C@@H](CC(=O)O)C(=O)N[C@@H](CC(=O)O)C(=O)N[C@@H](CO)C(=O)N[C@@H](CC(=O)O)C(=O)N[C@H](C(=O)N[C@@H](Cc1c[nH]c2ccccc12)C(=O)N[C@@H](Cc1c[nH]c2ccccc12)C(=O)N[C@@H](Cc1ccc2ccccc2c1)C(=O)NCC(=O)N[C@@H](C)C(=O)N[C@@H](CC(=O)O)C(=O)N[C@H](C(=O)N[C@@H](CC(=O)O)C(N)=O)[C@@H](C)O)C(C)C
B13: the Ki in test [2] was 100 nM; in test [3] it was 75 nM.

B14: peptide 21 (Ac-EDDD(2Nala)…-NH2) (peptide)
peptide: Ac-EDDD[2Nal]IDWGPTSDDD-NH2
SMILES: CC[C@H](C)[C@H](NC(=O)[C@H](Cc1ccc2ccccc2c1)NC(=O)[C@H](CC(=O)O)NC(=O)[C@H](CC(=O)O)NC(=O)[C@H](CC(=O)O)NC(=O)[C@H](CCC(=O)O)NC(C)=O)C(=O)N[C@@H](CC(=O)O)C(=O)N[C@@H](Cc1c[nH]c2ccccc12)C(=O)NCC(=O)N1CCC[C@H]1C(=O)N[C@H](C(=O)N[C@@H](CO)C(=O)N[C@@H](CC(=O)O)C(=O)N[C@@H](CC(=O)O)C(=O)N[C@@H](CC(=O)O)C(N)=O)[C@@H](C)O
In the case of B14, the Ki in test [1] amounted to 5.3 nM.

B15: EDDSDVWW(Omtyr)GADTD (peptide)
peptide: Ac-EDDSDVWW[Tyr(Me)]GADTD-NH2
SMILES: COc1ccc(C[C@H](NC(=O)[C@H](Cc2c[nH]c3ccccc23)NC(=O)[C@H](Cc2c[nH]c3ccccc23)NC(=O)[C@@H](NC(=O)[C@H](CC(=O)O)NC(=O)[C@H](CO)NC(=O)[C@H](CC(=O)O)NC(=O)[C@H](CC(=O)O)NC(=O)[C@H](CCC(=O)O)NC(C)=O)C(C)C)C(=O)NCC(=O)N[C@@H](C)C(=O)N[C@@H](CC(=O)O)C(=O)N[C@H](C(=O)N[C@@H](CC(=O)O)C(N)=O)[C@@H](C)O)cc1
As to B15, the Ki is 100 nM in test [2] and 109 nM in test [3].

B16: peptide 16 (Ac-…-NH2) (peptide)
peptide: Ac-EDDDWIDWYDSDDD-NH2
Take B16: in test [1], the Ki is 3.2 nM.

B17: peptide 32 (Ac-EDDD(Oetyr)…-NH2) (peptide)
peptide: Ac-EDDD[Oetyr]IDWYDSDDD-NH2
SMILES: CCOc1ccc(C[C@H](NC(=O)[C@H](CC(=O)O)NC(=O)[C@H](CC(=O)O)NC(=O)[C@H](CC(=O)O)NC(=O)[C@H](CCC(=O)O)NC(C)=O)C(=O)N[C@H](C(=O)N[C@@H](CC(=O)O)C(=O)N[C@@H](Cc2c[nH]c3ccccc23)C(=O)N[C@@H](Cc2ccc(O)cc2)C(=O)N[C@@H](CC(=O)O)C(=O)N[C@@H](CO)C(=O)N[C@@H](CC(=O)O)C(=O)N[C@@H](CC(=O)O)C(=O)N[C@@H](CC(=O)O)C(N)=O)[C@@H](C)CC)cc1
As for B17, in test [1], the Ki came to 5.3 nM.

B18: peptide 19 (Ac-…-NH2) (peptide)
peptide: Ac-EDDYIDWGPTSDDD-NH2
As for B18, in test [1], the Ki worked out at 3.8 nM.

B19: peptide 33 (Ac-EDDD(Obtyr)…-NH2) (peptide)
peptide: Ac-EDDD[Obtyr]IDWYDSDDD-NH2
SMILES: CC[C@H](C)[C@H](NC(=O)[C@H](Cc1ccc(OCc2ccccc2)cc1)NC(=O)[C@H](CC(=O)O)NC(=O)[C@H](CC(=O)O)NC(=O)[C@H](CC(=O)O)NC(=O)[C@H](CCC(=O)O)NC(C)=O)C(=O)N[C@@H](CC(=O)O)C(=O)N[C@@H](Cc1c[nH]c2ccccc12)C(=O)N[C@@H](Cc1ccc(O)cc1)C(=O)N[C@@H](CC(=O)O)C(=O)N[C@@H](CO)C(=O)N[C@@H](CC(=O)O)C(=O)N[C@@H](CC(=O)O)C(=O)N[C@@H](CC(=O)O)C(N)=O
Regarding B19, the Ki in test [1] came to 9.3 nM.

B20: EDDSDVWW(Obtyr)GADTD (peptide)
peptide: Ac-EDDSDVWW[Tyr(Bzl)]GADTD-NH2
SMILES: CC(=O)N[C@@H](CCC(=O)O)C(=O)N[C@@H](CC(=O)O)C(=O)N[C@@H](CC(=O)O)C(=O)N[C@@H](CO)C(=O)N[C@@H](CC(=O)O)C(=O)N[C@H](C(=O)N[C@@H](Cc1c[nH]c2ccccc12)C(=O)N[C@@H](Cc1c[nH]c2ccccc12)C(=O)N[C@@H](Cc1ccc(OCc2ccccc2)cc1)C(=O)NCC(=O)N[C@@H](C)C(=O)N[C@@H](CC(=O)O)C(=O)N[C@H](C(=O)N[C@@H](CC(=O)O)C(N)=O)[C@@H](C)O)C(C)C
Consider B20, for which the Ki in test [2] amounted to 100 nM; in test [3], 88 nM.

B21: EDDSDVWW(Aphe)GADTD (peptide)
peptide: Ac-EDDSDVWW[Phe(4-NH2)]GADTD-NH2
SMILES: CC(=O)N[C@@H](CCC(=O)O)C(=O)N[C@@H](CC(=O)O)C(=O)N[C@@H](CC(=O)O)C(=O)N[C@@H](CO)C(=O)N[C@@H](CC(=O)O)C(=O)N[C@H](C(=O)N[C@@H](Cc1c[nH]c2ccccc12)C(=O)N[C@@H](Cc1c[nH]c2ccccc12)C(=O)N[C@@H](Cc1ccc(N)cc1)C(=O)NCC(=O)N[C@@H](C)C(=O)N[C@@H](CC(=O)O)C(=O)N[C@H](C(=O)N[C@@H](CC(=O)O)C(N)=O)[C@@H](C)O)C(C)C
On to B21, for which the figures for the Ki in test [2] and in test [3] were 100 nM and 102 nM, respectively.

B22: peptide 17 (Ac-…-NH2) (peptide)
peptide: Ac-EDDDWIDWGPTSDDD-NH2
Turning to B22, in test [1], the Ki was determined as 4 nM.
